Experiments:
[1] = target: human PRSS1 (R&D Systems), activated with enterokinase (human, UniProt P07477 24-247); assay: cell-based or functional assay
[2] = target: PRSS2 (R&D Systems), activated with enterokinase (human, UniProt P07478 24-247); assay: cell-based or functional assay
Native Trypsin (abcam) = assay: cell-based or functional assay
[3] = target: T1, human trypsin 1 with serine to alanine mutation (including a His tag at C terminus) (human, UniProt P07477 24-247); assay: SPR (Biacore), antibody captured on Protein A chip, single-cycle kinetics, 25 C
T1 construct: also called Trypsin 1 S to A
Procedure: (§1) Antibody binding kinetic experiments via Biacore were performed to screen for anti-trypsin 1/trypsin 2 antibodies having high affinity to the respective targets. All screening assays were performed at 25 C. The running buffer used was 20 mM HEPES, 300 mM NaCl, 1 mM CaCl₂, 0.01% Tween-20, pH 7.5. Antibodies (1 ug/mL) were captured on Fc2-4 of a Series S ProteinA Sensor Chip (Cytiva) flowing at 10 uL/min for 30 s. Kinetics measurements were made in single-cycle kinetics mode with a series of 4-5 concentrations with top concentration of 10-200 nM and serial dilution 4-fold. Contact time was typically 180-300 s and dissociation time ranged from 300-3600 s. Flow rate of 30 uL/min was typically used. The sensor chip was regenerated with 10 mM glycine, pH 1.5 with a contact time of 30 s flowing at 50 uL/min.

[4] = target: T2, human trypsin 2 with serine to alanine mutation (including a His tag at C terminus) (human, UniProt P07478 25-247, limits assumed); assay: as above
T2 construct: also called Trypsin 2 S to A
T2 sequence (P07478 other isoform, or with tags, fused parts or gaps limits assumed): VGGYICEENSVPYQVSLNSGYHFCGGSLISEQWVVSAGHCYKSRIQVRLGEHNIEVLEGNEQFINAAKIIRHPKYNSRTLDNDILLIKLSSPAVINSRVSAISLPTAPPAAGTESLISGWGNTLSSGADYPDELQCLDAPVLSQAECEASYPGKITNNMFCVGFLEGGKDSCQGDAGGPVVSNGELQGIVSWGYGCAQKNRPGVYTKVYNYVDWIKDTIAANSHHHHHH
Procedure: as §1

PRSS2 (R&D Systems), activated with enterokinase, sequence (P07478 24-247 limits assumed): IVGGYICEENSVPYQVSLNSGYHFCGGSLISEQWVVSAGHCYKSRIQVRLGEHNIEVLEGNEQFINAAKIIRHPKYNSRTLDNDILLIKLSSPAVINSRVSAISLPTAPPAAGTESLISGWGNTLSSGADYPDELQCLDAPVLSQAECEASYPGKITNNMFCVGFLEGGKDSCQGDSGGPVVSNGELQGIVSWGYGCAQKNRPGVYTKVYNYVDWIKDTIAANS

B1: Trypsin 1/Trypsin 2-Dual-L5-Ab2 (antibody, V domains shown)
VH: QVQLVQSGAEVKKPGASVKVSCKASGYTFEGHYMHWVRQAPGQGLEWMGAINPYSGQTNYAQKFQGRVTMTRDTSISTAYMELSRLRSDDTAVYYCARDFVLLLRQSRILHESAFDIWGQGTTVTVSS
VL: EIVMTQSPATLSVSPGERATLSCRASQSVGSNLAWYQQKPGQAPRLLIYGASTRATGIPARFSGSGSGTEFTLTISSLQSEDFAVYYCQQFHNWPPLTFGGGTKVEIK
[1]
  IC50 Against 1 nM hTryp-1: 5.87 nM
[2]
  IC50 Against 1 nM hTryp-2: 6.09 nM
Native Trypsin (abcam)
  IC50 Against 0.25 nM Native Trypsin: 9.82 nM
[3]
  Kd: < 0.01 nM
[4]
  Kd: 0.00648 nM

From patent US20260274991A1 (TRIVENI BIO, published 2026)
